The term IC50 denotes the point on the concentration scale where inhibition reaches its midpoint.

For four molecules, IC50 results are on record in US20100311955A1 (SHANHAI GUOJIAN BIO TECH INSTITUTE, published 2010).

Test [1] addresses human CD34 (antigen on human myeloid leukemia cell KG-1a) (human) (UniProt P28906). Nature of the test: flow cytometry competition on KG-1a cells, competitor FITC-My10; single test.
For test [2] the target is unchanged. Nature of the test: flow cytometry competition on KG-1a cells, competitor FITC-My10; mean of 3 tests. (In general: A flow cytometer gives signals particle by particle.)
In test [3] the target is T1, human CD34 (antigen on human myeloid leukemia cell KG-1a) (human, UniProt P28906 32-385).
T1 construct: whole, on cells; Target in all assays is CD34 on KG-1a cells, which highly express it; also called antigen CD34
T1 sequence (looked up): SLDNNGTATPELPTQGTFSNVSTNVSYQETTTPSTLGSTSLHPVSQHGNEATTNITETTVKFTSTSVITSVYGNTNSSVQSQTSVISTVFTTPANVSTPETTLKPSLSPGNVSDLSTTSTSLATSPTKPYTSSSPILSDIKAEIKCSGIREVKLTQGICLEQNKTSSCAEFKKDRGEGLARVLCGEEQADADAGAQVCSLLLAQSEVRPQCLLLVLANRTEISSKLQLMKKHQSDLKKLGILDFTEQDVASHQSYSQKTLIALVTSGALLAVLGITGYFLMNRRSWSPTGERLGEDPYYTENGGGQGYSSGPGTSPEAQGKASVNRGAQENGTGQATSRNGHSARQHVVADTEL
As to the kind of experiment: flow cytometry competition on KG-1a cells, competitor FITC-4C8. On the procedure:
A fixed subsaturating concentration of fluorescently labeled antibody FITC-4C8 and serial dilution of unlabeled purified antibodies were mixed respectively and then added into target KG-1a cells (1×10⁶/ml), and incubated at 4° C. for 60 min, the cells were washed twice with 1% FCS-PBS and examined by FCM using Cellquest software for analysis. Humanized anti-CD3 monoclonal antibody hu12F6 (preparation see to Li B H, Wang H, Dai J X, Ji J J, Qian W Z, Zhang D P, Hou S, Guo Y J. Construction and characterization of a humanized anti-human CD3 monoclonal antibody 12F6 with effective immunoregulation functions. Immunology 2005, 116(4):487-98) was used as control. Triplicate tubes were set for each concentration of the competitive antibody. The IC₅₀ values were calculated, with the maximum fluorescence intensity indicating the average fluorescence intensity obtained in the absence of competitive antibody.

The target of test [4] is T1, human CD34 (antigen on human myeloid …). Nature of the test: flow cytometry competition on KG-1a cells, competitor FITC-My10; single test. The procedure:
(§1) Immunology. 2005, 116(4):487-98) was used as control. Triplicate tubes were set for each concentration of the competitive antibody. The IC₅₀ values were calculated, with the maximum fluorescence intensity indicating the average fluorescence intensity obtained in the absence of competitive antibody. Repeating this test for 3 times, and gaining statistical the result, see to Table 2.

The target is the same in test [5]. Nature of the test: flow cytometry competition on KG-1a cells, competitor FITC-My10; mean of 3 tests. On the procedure: as §1

“And” between values parts separate entries of the source, which are not always exact repeats. Identical values can stand only once.

As to “murine-derived monoclonal antibody My10 (anti-CD34)”, the concentration for half-maximal inhibition (IC50) was 8.67 µg/mL and 9.23 µg/mL and 8.18 µg/mL in test [1]; 8.69 µg/mL in test [2].

B1: humanized antibody h4C8 (h4C8Hb/h4C8Lb) (antibody, human IgG1, V domains shown)
VH: QIQLVQSGSELKKPGASVKVSCKASGYTFTNYGMNWVRQAPGQGLKWMGWINTNTGEPKYAEEFKGRFALSLDTSVSTAYLQINSLKAEDTAVYFCARGYGNYARGAWLAYWGQGTLVTVSS
VL: DVLLTQSPLSLPVTLGQPASISCRSSQTIVHSNGNTYLEWFQQRPGQSPRLLIYQVSNRFSGVPDRFSGSGSGTDFTLKISRVEAEDVGVYYCFQGSHVPRTFGGGTKVEIKR
notes: CDR-grafted antibody with nine murine framework residues kept; also called humanized anti-CD34 antibody; hu4C8
On to B1, for which the IC50 is 1.76 µg/mL in test [3]; 1.11 µg/mL and 1.14 µg/mL and 1.02 µg/mL in test [4]; 1.09 µg/mL in test [5].

B2: anti-human CD34 monoclonal antibody 4C8 (antibody, V domains shown)
VH: QIQLVQSGPELKKPGETVNISCKASGYTFTNYGMNWVKQAPGKGLKWMGWINTNTGEPKYAEEFKGRFALSLETSASTAYLQINNLKNEDTATYFCARGYGNYARGAWLAYWGQGTLVTVSA
VL: DVLLTQTPLSLPVSLGDQASISCRSSQTIVHSNGNTYLEWFLQKPGQSPKLLIYQVSNRFSGVPDRFSGSGSGTDFTLKISRVEAEDLGVYYCFQGSHVPRTFGGGTKLEIKR
notes: Mouse hybridoma antibody purified on Protein G; also called murine-derived monoclonal antibody 4C8; FITC-4C8
B2 returned an IC50 in test [3] of 1.72 µg/mL.

B3: chimeric antibody c4C8 (antibody, human IgG1, kappa, V domains shown)
VH: QIQLVQSGPELKKPGETVNISCKASGYTFTNYGMNWVKQAPGKGLKWMGWINTNTGEPKYAEEFKGRFALSLETSASTAYLQINNLKNEDTATYFCARGYGNYARGAWLAYWGQGTLVTVSA
VL: DVLLTQTPLSLPVSLGDQASISCRSSQTIVHSNGNTYLEWFLQKPGQSPKLLIYQVSNRFSGVPDRFSGSGSGTDFTLKISRVEAEDLGVYYCFQGSHVPRTFGGGTKLEIKR
notes: also called 4C8 chimeric antibody
With B3, in test [3], the IC50 turned out to be 1.69 µg/mL. This IC50 and that of the molecule before are within 1.5-fold of each other.
